The supplement of paper PMC11246515
± gives the standard deviation of the averaged measurements.

Assay: total protein half-life in vivo (active degradation + dilution); higher = more stable protein
[1] = E. coli NCM3722 delta-clpP delta-lon delta-hslV, growth: N-lim chemostat, doubling time 6 h
[2] = E. coli NCM3722 delta-clpP, growth: N-lim chemostat, doubling time 6 h
[3] = E. coli NCM3722 delta-hslV, growth: N-lim chemostat, doubling time 6 h
[4] = E. coli NCM3722 delta-lon, growth: N-lim chemostat, doubling time 6 h
[5] = E. coli NCM3722 delta-smpB, growth: N-lim chemostat, doubling time 6 h
[6] = wild type E. coli NCM3722, growth: C-lim chemostat, doubling time 3 h
[7] = wild type E. coli NCM3722, growth: C-lim chemostat, doubling time 6 h
[8] = wild type E. coli NCM3722, growth: C-lim chemostat, doubling time 12 h
[9] = wild type E. coli NCM3722, growth: N-lim chemostat, doubling time 6 h
[10] = wild type E. coli NCM3722, growth: N-lim chemostat, doubling time 12 h
[11] = wild type E. coli NCM3722, growth: P-lim chemostat, doubling time 6 h
[12] = wild type E. coli NCM3722, growth: P-lim chemostat, doubling time 12 h

Sequence | total protein half-life in vivo [1] [h] | total protein half-life in vivo [2] [h] | total protein half-life in vivo [3] [h] | total protein half-life in vivo [4] [h] | total protein half-life in vivo [5] [h] | total protein half-life in vivo [6] [h] | total protein half-life in vivo [7] [h] | total protein half-life in vivo [8] [h] | total protein half-life in vivo [9] [h] | total protein half-life in vivo [10] [h] | total protein half-life in vivo [11] [h] | total protein half-life in vivo [12] [h]
MQAIPMTLRGAEKLREELDFLKSVRRPEIIAAIAEAREHGDLKENAEYHAAREQQGFCEGRIKDIEAKLSNAQVIDVTKMPNNGRVIFGATVTVLNLDSDEEQTYRIVGDDEADFKQNLISVNSPIARGLIGKEEDDVVVIKTPGGEVEFEVIKVEYL [P0A6W5] | 5.3 ± 0.11 | 4.38 ± 0.77 | 3.21 ± 0.12 | 3.76 ± 0.18 | 2.44 ± 0.26 | 2.57 ± 0.24 | 4.48 ± 0.2 | 6.41 ± 0.17 | 3.27 ± 0.066 | 4.46 ± 0.28 | 3.75 ± 0.55 | 6.8 ± 0.8
MQAYFDQLDRVRYEGSKSSNPLAFRHYNPDELVLGKRMEEHLRFAACYWHTFCWNGADMFGVGAFNRPWQQPGEALALAKRKADVAFEFFHKLHVPFYCFHDVDVSPEGASLKEYINNFAQMVDVLAGKQEESGVKLLWGTANCFTNPRYGAGAATNPDPEVFSWAATQVVTAMEATHKLGGENYVLWGGREGYETLLNTDLRQEREQLGRFMQMVVEHKHKIGFQGTLLIEPKPQEPTKHQYDYDAATVYGFLKQFGLEKEIKLNIEANHATLAGHSFHHEIATAIALGLFGSVDANRGDAQLGWDTDQFPNSVEENALVMYEILKAGGFTTGGLNFDAKVRRQSTDKYDLFYGHIGAMDTMALALKIAARMIEDGELDKRIAQRYSGWNSELGQQILKGQMSLADLAKYAQEHHLSPVHQSGRQEQLENLVNHYLFDK | 4.53 ± 0.48 | – | 2.75 | – | – | 2.93 ± 0.26 | 4.84 ± 0.15 | 8.63 ± 0.81 | 3.53 | – | 5.81 ± 0.47 | 11.6 ± 0.51
MQDAAPRLTFTLRDEERLMMKIGVFVPIGNNGWLISTHAPQYMPTFELNKAIVQKAEHYHFDFALSMIKLRGFGGKTEFWDHNLESFTLMAGLAAVTSRIQIYATAATLTLPPAIVARMAATIDSISGGRFGVNLVTGWQKPEYEQMGIWPGDDYFSRRYDYLTEYVQVLRDLWGTGKSDFKGDFFTMNDCRVSPQPSVPMKVICAGQSDAGMAFSARYADFNFCFGKGVNTPTAFAPTAARMKQAAEQTGRDVGSYVLFMVIADETDDAARAKWEHYKAGADEEALSWLTEQSQKDTRSGTDTNVRQMADPTSAVNINMGTLVGSYASVARMLDEVASVPGAEGVLLTFDDFLSGIETFGERIQPLMQCRAHLPALTQEVA | 5.26 ± 0.37 | 3.06 ± 0.12 | 0.715 ± 0.26 | 0.661 ± 0.0067 | 0.481 ± 0.11 | – | – | – | 0.658 ± 0.16 | 0.664 ± 0.16 | – | –
MQEIYRFIDDAIEADRQRYTDIADQIWDHPETRFEEFWSAEHLASALESAGFTVTRNVGNIPNAFIASFGQGKPVIALLGEYDALAGLSQQAGCAQPTSVTPGENGHGCGHNLLGTAAFAAAIAVKKWLEQYGQGGTVRFYGCPGEEGGSGKTFMVREGVFDDVDAALTWHPEAFAGMFNTRTLANIQASWRFKGIAAHAANSPHLGRSALDAVTLMTTGTNFLNEHIIEKARVHYAITNSGGISPNVVQAQAEVLYLIRAPEMTDVQHIYDRVAKIAEGAALMTETTVECRFDKACSSYLPNRTLENAMYQALSHFGTPEWNSEELAFAKQIQATLTSNDRQNSLNNIAATGGENGKVFALRHRETVLANEVAPYAATDNVLAASTDVGDVSWKLPVAQCFSPCFAVGTPLHTWQLVSQGRTSIAHKGMLLAAKTMAATTVNLFLDSGLLQECQQEHQQVTDTQPYHCPIPKNVTPSPLK | 5.29 ± 0.17 | – | – | – | – | – | – | – | – | – | – | –
MQENISVTDSYSTGNAAQAMLEKLLQIYDVKTLVAQLNGVGENHWSAAILKRALANDSAWHRLSEKEFAHLQTLLPKPPAHHPHYAFRFIDLFAGIGGIRRGFESIGGQCVFTSEWNKHAVRTYKANHYCDPATHHFNEDIRDITLSHKEGVSDEAAAEHIRQHIPEHDVLLAGFPCQPFSLAGVSKKNSLGRAHGFACDTQGTLFFDVVRIIDARRPAMFVLENVKNLKSHDQGKTFRIIMQTLDELGYDVADAEDNGPDDPKIIDGKHFLPQHRERIVLVGFRRDLNLKADFTLRDISECFPAQRVTLAQLLDPMVEAKYILTPVLWKYLYRYAKKHQARGNGFGYGMVYPNNPQSVTRTLSARYYKDGAEILIDRGWDMATGEKDFDDPLNQQHRPRRLTPRECARLMGFEAPGEAKFRIPVSDTQAYRQFGNSVVVPVFAAVAKLLEPKIKQAVALRQQEAQHGRRSR [P0AED9] | 6.76 ± 1.5 | 5.15 ± 0.12 | 3.09 ± 0.34 | 2.96 ± 0.39 | 2.66 ± 0.11 | 2.31 ± 0.072 | 3.32 ± 0.18 | 6.06 ± 0.83 | 3.04 ± 0.39 | 3.94 ± 0.19 | 3.02 ± 0.45 | 5.98 ± 1
MQERIKACFTESIQTQIAAAEALPDAISRAAMTLVQSLLNGNKILCCGNGTSAANAQHFAASMINRFETERPSLPAIALNTDNVVLTAIANDRLHDEVYAKQVRALGHAGDVLLAISTRGNSRDIVKAVEAAVTRDMTIVALTGYDGGELAGLLGPQDVEIRIPSHRSARIQEMHMLTVNCLCDLIDNTLFPHQDD | 5.68 ± 1.7 | 6.95 ± 0.57 | 4.6 ± 0.094 | 5.12 ± 0.18 | 5.68 ± 1.4 | 3.087 ± 0.0052 | 5.56 ± 0.26 | 11.1 ± 0.025 | 4.54 | 7.55 ± 1 | 5.81 ± 0.52 | 13 ± 3.2
MQFDYIIIGAGSAGNVLATRLTEDPNTSVLLLEAGGPDYRFDFRTQMPAALAFPLQGKRYNWAYETEPEPFMNNRRMECGRGKGLGGSSLINGMCYIRGNALDLDNWAQEPGLENWSYLDCLPYYRKAETRDMGENDYHGGDGPVSVTTSKPGVNPLFEAMIEAGVQAGYPRTDDLNGYQQEGFGPMDRTVTPQGRRASTARGYLDQAKSRPNLTIRTHAMTDHIIFDGKRAVGVEWLEGDSTIPTRATANKEVLLCAGAIASPQILQRSGVGNAELLAEFDIPLVHELPGVGENLQDHLEMYLQYECKEPVSLYPALQWWNQPKIGAEWLFGGTGVGASNHFEAGGFIRSREEFAWPNIQYHFLPVAINYNGSNAVKEHGFQCHVGSMRSPSRGHVRIKSRDPHQHPAILFNYMSHEQDWQEFRDAIRITREIMHQPALDQYRGREISPGVECQTDEQLDEFVRNHAETAFHPCGTCKMGYDEMSVVDGEGRVHGLEGLRVVDASIMPQIITGNLNATTIMIGEKIADMIRGQEALPRSTAGYFVANGMPVRAKK | 5.76 ± 0.8 | – | – | – | – | – | – | > 16 | 2.75 | – | – | 4.08
MQFEKMITEGSNTASAEIDRVSTLEMCRIINDEDKTVPLAVERVLPDIAAAIDVIHAQVSGGGRLIYLGAGTSGRLGILDASECPPTYGVKPGLVVGLIAGGEYAIQHAVEGAEDSREGGVNDLKNINLTAQDVVVGIAASGRTPYVIAGLEYARQLGCRTVGISCNPGSAVSTTAEFAITPIVGAEVVTGSSRMKAGTAQKLVLNMLSTGLMIKSGKVFGNLMVDVVATNEKLHVRQVNIVKNATGCSAEQAEAALIACERNCKTAIVMVLKNLDAAEAKKRLDQHGGFIRQVLDKE | 5.64 ± 0.068 | 4.82 ± 0.37 | 5.96 ± 1.8 | 4.88 ± 0.37 | 4.08 ± 0.35 | 3.04 ± 0.084 | 5.28 ± 0.059 | 8.41 ± 0.19 | 4.37 ± 0.25 | 8.74 ± 0.62 | 5.92 ± 1.1 | 9.65 ± 0.26
